Data on one molecule can be found in paper PMC3554864.

The target in the data set is NS3 helicase (NS3, with protease domain) (Hepatitis C virus (genotype ), UniProt Q9WMX2 1027-1657). Description: KMnO4 footprinting.
NS3 helicase (NS3, with protease domain), sequence (Q9WMX2 1027-1657): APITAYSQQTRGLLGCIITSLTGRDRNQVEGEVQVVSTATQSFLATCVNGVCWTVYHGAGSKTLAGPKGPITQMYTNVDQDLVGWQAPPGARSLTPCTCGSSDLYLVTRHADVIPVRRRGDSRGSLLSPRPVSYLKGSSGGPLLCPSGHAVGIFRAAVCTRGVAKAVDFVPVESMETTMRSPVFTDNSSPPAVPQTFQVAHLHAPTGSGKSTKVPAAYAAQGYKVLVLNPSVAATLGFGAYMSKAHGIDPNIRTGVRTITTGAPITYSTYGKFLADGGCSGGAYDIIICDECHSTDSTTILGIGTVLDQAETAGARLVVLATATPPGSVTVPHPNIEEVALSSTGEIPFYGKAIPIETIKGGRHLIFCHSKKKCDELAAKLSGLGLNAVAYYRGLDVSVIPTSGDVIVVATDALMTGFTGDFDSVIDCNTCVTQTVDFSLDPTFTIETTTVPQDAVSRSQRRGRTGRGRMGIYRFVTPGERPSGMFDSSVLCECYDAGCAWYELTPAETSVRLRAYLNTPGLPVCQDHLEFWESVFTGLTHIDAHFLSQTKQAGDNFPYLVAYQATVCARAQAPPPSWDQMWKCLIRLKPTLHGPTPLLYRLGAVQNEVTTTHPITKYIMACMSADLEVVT

B1: 30mer blunt duplex (dsDNA)
DNA 1: GCTCTCTGTCTGTCTGTGTCTCTGTCTCTG
DNA 2: CAGAGACAGAGACACAGACAGACAGAGAGC
modifications: biotin (position not stated for this duplex)
For the molecule B1, the binding result was “binds”.
